This is an account of results in US20250257107.

The target of this data set is fusion of human collagen type I, alpha 1 solubility-enhancing sequence (HsCol1a1-27), TEV cleavage site ENLYFQG and human keratin type 31 polypeptide fragment (K31).

B1: AcTEV protease (protein)
chain: GESLFKGPRDYNPISSTICHLTNESDGHTTSLYGIGFGPFIITNKHLFRRNNGTLLVQSLHGVFKVKNTTTLQQHLIDGRDMIIIRMPKDFPPFPQKLKFREPQREERICLVTTNFQTKSMSSMVSDTSCTFPSSDGIFWKHWIQTKDGQCGSPLVSTRDGFIVGIHSASNFTNTNNYFTSVPKNFMELLTNQEAQQWVSGWRLNADSVLWGGHKVFMSKPEEPFQPVKEATQLMNELVYSQ
Regarding B1, the “cleavage of the fusion protein, SDS-PAGE with Coomassie Blue” value is “confirm that the cleavage was successful”.
